Data reported in patent US20130280784A1, “ESCHERICHIA COLI EXPRESSION SYSTEM FOR PRODUCING MATURE HUMAN TYROSINASE AND A PRODUCING METHOD THEREOF” (PROVIDENCE UNIVERSITY, priority 2012, published 2013).

T1: tyrosinase of B16 mouse melanoma cells (Mus musculus, UniProt P11344)
T1 construct: tyrosinase of B16 mouse melanoma cells; host or cells: B16 mouse melanoma cells
T1 sequence (P11344 19-533): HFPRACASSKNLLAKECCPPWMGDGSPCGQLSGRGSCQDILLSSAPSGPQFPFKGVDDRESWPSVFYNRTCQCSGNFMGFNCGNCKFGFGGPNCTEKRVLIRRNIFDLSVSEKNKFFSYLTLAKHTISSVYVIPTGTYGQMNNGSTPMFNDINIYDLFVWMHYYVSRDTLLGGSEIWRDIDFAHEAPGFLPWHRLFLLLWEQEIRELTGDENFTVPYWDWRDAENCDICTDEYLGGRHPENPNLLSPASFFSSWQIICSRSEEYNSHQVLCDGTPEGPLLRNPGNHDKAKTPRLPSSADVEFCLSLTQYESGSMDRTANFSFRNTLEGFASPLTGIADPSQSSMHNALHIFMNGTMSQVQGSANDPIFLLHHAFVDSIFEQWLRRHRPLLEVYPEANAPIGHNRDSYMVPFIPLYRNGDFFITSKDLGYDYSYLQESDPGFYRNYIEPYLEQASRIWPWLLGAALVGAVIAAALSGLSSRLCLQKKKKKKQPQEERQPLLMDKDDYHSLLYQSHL

B1: recombinant human tyrosinase: mature human tyrosinase of 512 amino acids, about 57 kDa, expressed in E. coli BL21(DE3)/pET-23a(+)-RHT and refolded (protein, UniProt P14679 19-529, looked up)
Tyrosinase: HFPRACVSSKNLMEKECCPPWSGDRSPCGQLSGRGSCQNILLSNAPLGPQFPFTGVDDRESWPSVFYNRTCQCSGNFMGFNCGNCKFGFWGPNCTERRLLVRRNIFDLSAPEKDKFFAYLTLAKHTISSDYVIPIGTYGQMKNGSTPMFNDINIYDLFVWMHYYVSMDALLGGSEIWRDIDFAHEAPAFLPWHRLFLLRWEQEIQKLTGDENFTIPYWDWRDAEKCDICTDEYMGGQHPTNPNLLSPASFFSSWQIVCSRLEEYNSHQSLCNGTPEGPLRRNPGNHDKSRTPRLPSSADVEFCLSLTQYESGSMDKAANFSFRNTLEGFASPLTGIADASQSSMHNALHIYMNGTMSQVQGSANDPIFLLHHAFVDSIFEQWLRRHRPLQEVYPEANAPIGHNRESYMVPFIPLYRNGDFFISSKDLGYDYSYLQDSDPDSFQDYIKSYLEQASRIWSWLLGAAMVGAVLTALLAGLVSLLCRHKRKQLPEEKQPLLMEKEDYHSLYQSHL
B2: Gel filtration: recombinant human tyrosinase fractions after Sephacryl S-100 HR gel filtration chromatography (protein, UniProt P14679 19-529, looked up)
Tyrosinase: B1 Tyrosinase
B3: DEAE ion-exchange: recombinant human tyrosinase fractions after DEAE sepharose Fast Flow ion-exchange chromatography (protein, UniProt P14679 19-529, looked up)
Tyrosinase: B1 Tyrosinase

Key:
[1] = molecular target: T1, tyrosinase of B16 mouse melanoma cells; settings: cited from earlier work
[2] = system: tyrosinase isolated from Agaricus bisporus; settings: cited from earlier work
[3] = enzyme activity assay of refolded recombinant human tyrosinase with L-Dopa as enzyme substrate (A475); format: biochemical; settings: for Specificity / Total enzyme activity: 10 L of the starting material, L-Dopa as enzyme substrate
Method: In order to analyze the enzyme activity of the aforementioned refolded recombinant human tyrosinase, […] of 50 mM PBS buffer (pH 7.0), and […] crude extract containing refolded recombinant human tyrosinase were mixed and left standing for 5 minutes at 37° C. Subsequently, […] L-Dopa was added (to a final concentration of 3 mM) to the mixture as an enzyme substrate and reacted for 30 minutes at 37° C. The absorbance at A475 was measured using a spectrophotometer.
The final yield of the purification, the total amount of the proteins, the enzyme activity and the analysis of the specificity were summarized in Table 1. Table 1 summarizes the results of 10 L of the starting material, and L-Dopa was used as an enzyme substrate in the enzyme activity assay.

Row | Molecule | Specificity [3] [units/mg] | Total enzyme activity [3] [units] | also measured
1 | α-arbutin | – | – | inhibition of tyrosinase [1]: significantly inhibits; inhibitory effects on tyrosinase [2]: does not exhibit any inhibitory effects
2 | B1 | – | – | tyrosinase activity ([3]; after isolation from the crude extract using ion-exchange chromatography): 15.5 units/mg; tyrosinase activity ([3]; by using gel filtration chromatography): 57.7 units 1 mg
3 | B2 | 57.7 | 144.3 | –
4 | B3 | 15.5 | 1383.1 | –
